The Human Domainome abundance scans (Beltran et al. 2025)
± gives the uncertainty stated by the source.

B1: Transcriptional regulator ERG, residues 117 to 197; numbered along this chain, P11308 (parent)
chain: NMTTNERRVIVPADPTLWSTDHVRQWLEWAVKEYGLPDVNILLFQNIDGKELCKMTKDDFQRLTPSYNADILLSHLHYLRE

Variants of: B1
Experiment: abundance fitness (aPCA) (normalised: wild type 0, dead -1); higher = more abundant; growth selection in yeast, the domain comes from the species named
Settings: Homo sapiens

| Variant | abundance fitness |
| --- | --- |
| NMTTNERRVIVPADPTLWSTDHVRQWLEWAVKEYGLPDVNILLFQNIDGKELCKMTKDDFQDLTPSYNADILLSHLHYLRE | 0.02 ± 0.067 |
| NMTTNERRVIVPADPTLWSTDHVRQWLEWAVKEYGLPDVNILLFQNIDGKELCKMTKDDFQCLTPSYNADILLSHLHYLRE | -0.072 ± 0.084 |
| NMTTNERRVIVPADPTLWSTDHVRQWLEWAVKEYGLPDVNILLFQNIDGKELCKMTKDDFQPLTPSYNADILLSHLHYLRE | -0.399 ± 0.13 |
| NMTTNERRVIVPADPTLWSTDHVRQWLEWAVKEYGLPDVNILLFQNIDGKELCKMTKDDFQVLTPSYNADILLSHLHYLRE | -0.063 ± 0.061 |
| NMTTNERRVIVPADPTLWSTDHVRQWLEWAVKEYGLPDVNILLFQNIDGKELCKMTKDDFQLLTPSYNADILLSHLHYLRE | -0.152 ± 0.069 |
| NMTTNERRVIVPADPTLWSTDHVRQWLEWAVKEYGLPDVNILLFQNIDGKELCKMTKDDFQALTPSYNADILLSHLHYLRE | 0.022 ± 0.054 |
| NMTTNERRVIVPADPTLWSTDHVRQWLEWAVKEYGLPDVNILLFQNIDGKELCKMTKDDFQTLTPSYNADILLSHLHYLRE | -0.162 ± 0.12 |
| NMTTNERRVIVPADPTLWSTDHVRQWLEWAVKEYGLPDVNILLFQNIDGKELCKMTKDDFQELTPSYNADILLSHLHYLRE | -0.073 ± 0.083 |
| NMTTNERRVIVPADPTLWSTDHVRQWLEWAVKEYGLPDVNILLFQNIDGKELCKMTKDDFQMLTPSYNADILLSHLHYLRE | 0.097 ± 0.089 |
| NMTTNERRVIVPADPTLWSTDHVRQWLEWAVKEYGLPDVNILLFQNIDGKELCKMTKDDFQKLTPSYNADILLSHLHYLRE | 0.017 ± 0.092 |
| NMTTNERRVIVPADPTLWSTDHVRQWLEWAVKEYGLPDVNILLFQNIDGKELCKMTKDDFQILTPSYNADILLSHLHYLRE | 0.03 ± 0.077 |
| NMTTNERRVIVPADPTLWSTDHVRQWLEWAVKEYGLPDVNILLFQNIDGKELCKMTKDDFQFLTPSYNADILLSHLHYLRE | -0.112 ± 0.11 |
| NMTTNERRVIVPADPTLWSTDHVRQWLEWAVKEYGLPDVNILLFQNIDGKELCKMTKDDFQSLTPSYNADILLSHLHYLRE | -0.095 ± 0.062 |
| NMTTNERRVIVPADPTLWSTDHVRQWLEWAVKEYGLPDVNILLFQNIDGKELCKMTKDDFQQLTPSYNADILLSHLHYLRE | 0.067 ± 0.11 |
| NMTTNERRVIVPADPTLWSTDHVRQWLEWAVKEYGLPDVNILLFQNIDGKELCKMTKDDFQWLTPSYNADILLSHLHYLRE | -0.26 ± 0.1 |
| NMTTNERRVIVPADPTLWSTDHVRQWLEWAVKEYGLPDVNILLFQNIDGKELCKMTKDDFQRCTPSYNADILLSHLHYLRE | -0.215 ± 0.079 |
| NMTTNERRVIVPADPTLWSTDHVRQWLEWAVKEYGLPDVNILLFQNIDGKELCKMTKDDFQRVTPSYNADILLSHLHYLRE | -0.092 ± 0.041 |

| Variant | abundance fitness |
| --- | --- |
| NMTTNERRVIVPADPTLWSTDHVRQWLEWAVKEYGLPDVNILLFQNIDGKELCKMTKDDFQRETPSYNADILLSHLHYLRE | -0.691 ± 0.092 |
| NMTTNERRVIVPADPTLWSTDHVRQWLEWAVKEYGLPDVNILLFQNIDGKELCKMTKDDFQRTTPSYNADILLSHLHYLRE | -0.476 ± 0.18 |
| NMTTNERRVIVPADPTLWSTDHVRQWLEWAVKEYGLPDVNILLFQNIDGKELCKMTKDDFQRPTPSYNADILLSHLHYLRE | -0.567 ± 0.23 |
| NMTTNERRVIVPADPTLWSTDHVRQWLEWAVKEYGLPDVNILLFQNIDGKELCKMTKDDFQRFTPSYNADILLSHLHYLRE | -0.071 ± 0.11 |
| NMTTNERRVIVPADPTLWSTDHVRQWLEWAVKEYGLPDVNILLFQNIDGKELCKMTKDDFQRRTPSYNADILLSHLHYLRE | -0.153 ± 0.041 |
| NMTTNERRVIVPADPTLWSTDHVRQWLEWAVKEYGLPDVNILLFQNIDGKELCKMTKDDFQRMTPSYNADILLSHLHYLRE | -0.003 ± 0.067 |
| NMTTNERRVIVPADPTLWSTDHVRQWLEWAVKEYGLPDVNILLFQNIDGKELCKMTKDDFQRSTPSYNADILLSHLHYLRE | -0.46 ± 0.086 |
| NMTTNERRVIVPADPTLWSTDHVRQWLEWAVKEYGLPDVNILLFQNIDGKELCKMTKDDFQRHTPSYNADILLSHLHYLRE | -0.18 ± 0.1 |
| NMTTNERRVIVPADPTLWSTDHVRQWLEWAVKEYGLPDVNILLFQNIDGKELCKMTKDDFQRQTPSYNADILLSHLHYLRE | -0.459 ± 0.17 |
| NMTTNERRVIVPADPTLWSTDHVRQWLEWAVKEYGLPDVNILLFQNIDGKELCKMTKDDFQRITPSYNADILLSHLHYLRE | 0.097 ± 0.15 |
| NMTTNERRVIVPADPTLWSTDHVRQWLEWAVKEYGLPDVNILLFQNIDGKELCKMTKDDFQRYTPSYNADILLSHLHYLRE | -0.027 ± 0.098 |
| NMTTNERRVIVPADPTLWSTDHVRQWLEWAVKEYGLPDVNILLFQNIDGKELCKMTKDDFQRKTPSYNADILLSHLHYLRE | -0.213 ± 0.073 |
| NMTTNERRVIVPADPTLWSTDHVRQWLEWAVKEYGLPDVNILLFQNIDGKELCKMTKDDFQRNTPSYNADILLSHLHYLRE | -0.571 ± 0.15 |
| NMTTNERRVIVPADPTLWSTDHVRQWLEWAVKEYGLPDVNILLFQNIDGKELCKMTKDDFQRWTPSYNADILLSHLHYLRE | -0.179 ± 0.05 |
| NMTTNERRVIVPADPTLWSTDHVRQWLEWAVKEYGLPDVNILLFQNIDGKELCKMTKDDFQRATPSYNADILLSHLHYLRE | -0.238 ± 0.092 |
| NMTTNERRVIVPADPTLWSTDHVRQWLEWAVKEYGLPDVNILLFQNIDGKELCKMTKDDFQRGTPSYNADILLSHLHYLRE | -0.547 ± 0.056 |
| NMTTNERRVIVPADPTLWSTDHVRQWLEWAVKEYGLPDVNILLFQNIDGKELCKMTKDDFQRLAPSYNADILLSHLHYLRE | -0.034 ± 0.053 |
